How the values were obtained:
Experiment in all cases: flow cytometry, A375Ppuro cells
[1] = target: Peptide (16) AcHN-NK(Biotin)…-OH
[2] = target: Peptide (18) AcHN-NK(Biotin)…-NH2
[3] = target: Peptide (22) DTPA-NK(Biotin)…-OH
[4] = target: Peptide (23) DTPA-GNK(Biotin)…-OH
[5] = target: Peptide (24) DTPA-NK(Biotin)…-NH2
[6] = target: Peptide (25) DTPA-nK(Biotin)…-OH
[7] = target: Peptide (26) DTPA-nK(Biotin)…t-OH

Measured: binding result

B1: integrin αvβ5 (receptor)
chain 1: FNLDVDSPAEYSGPEGSYFGFAVDFFVPSASSRMFLLVGAPKANTTQPGIVEGGQVLKCDWSSTRRCQPIEFDATGNRDYAKDDPLEFKSHQWFGASVRSKQDKILACAPLYHWRTEMKQEREPVGTCFLQDGTKTVEYAPCRSQDIDADGQGFCQGGFSIDFTKADRVLLGGPGSFYWQGQLISDQVAEIVSKYDPNVYSIKYNNQLATRTAQAIFDDSYLGYSVAVGDFNGDGIDDFVSGVPRAARTLGMVYIYDGKNMSSLYNFTGEQMAAYFGFSVAATDINGDDYADVFIGAPLFMDRGSDGKLQEVGQVSVSLQRASGDFQTTKLNGFEVFARFGSAIAPLGDLDQDGFNDIAIAAPYGGEDKKGIVYIFNGRSTGLNAVPSQILEGQWAARSMPPSFGYSMKGATDIDKNGYPDLIVGAFGVDRAILYRARPVITVNAGLEVYPSILNQDNKTCSLPGTALKVSCFNVRFCLKADGKGVLPRKLNFQVELLLDKLKQKGAIRRALFLYSRSPSHSKNMTISRGGLMQCEELIAYLRDESEFRDKLTPITIFMEYRLDYRTAADTTGLQPILNQFTPANISRQAHILLDCGEDNVCKPKLEVSVDSDQKKIYIGDDNPLTLIVKAQNQGEGAYEAELIVSIPLQADFIGVVRNNEALARLSCAFKTENQTRQVVCDLGNPMKAGTQLLAGLRFSVHQQSEMDTSVKFDLQIQSSNLFDKVSPVVSHKVDLAVLAAVEIRGVSSPDHVFLPIPNWEHKENPETEEDVGPVVQHIYELRNNGPSSFSKAMLHLQWPYKYNNNTLLYILHYDIDGPMNCTSDMEINPLRIKISSLQTTEKNDTVAGQGERDHLITKRDLALSEGDIHTLGCGVAQCLKIVCQVGRLDRGKSAILYVKSLLWTETFMNKENQNHSYSLKSSASFNVIEFPYKNLPIEDITNSTLVTTNVTWGIQPAPMPVPVWVIILAVLAGLLLLAVLVFVMYRMGFFKRVRPPQEEQEREQLQPHENGEGNSET
chain 2: GLNICTSGSATSCEECLLIHPKCAWCSKEDFGSPRSITSRCDLRANLVKNGCGGEIESPASSFHVLRSLPLSSKGSGSAGWDVIQMTPQEIAVNLRPGDKTTFQLQVRQVEDYPVDLYYLMDLSLSMKDDLDNIRSLGTKLAEEMRKLTSNFRLGFGSFVDKDISPFSYTAPRYQTNPCIGYKLFPNCVPSFGFRHLLPLTDRVDSFNEEVRKQRVSRNRDAPEGGFDAVLQAAVCKEKIGWRKDALHLLVFTTDDVPHIALDGKLGGLVQPHDGQCHLNEANEYTASNQMDYPSLALLGEKLAENNINLIFAVTKNHYMLYKNFTALIPGTTVEILDGDSKNIIQLIINAYNSIRSKVELSVWDQPEDLNLFFTATCQDGVSYPGQRKCEGLKIGDTASFEVSLEARSCPSRHTEHVFALRPVGFRDSLEVGVTYNCTCGCSVGLEPNSARCNGSGTYVCGLCECSPGYLGTRCECQDGENQSVYQNLCREAEGKPLCSGRGDCSCNQCSCFESEFGKIYGPFCECDNFSCARNKGVLCSGHGECHCGECKCHAGYIGDNCNCSTDISTCRGRDGQICSERGHCLCGQCQCTEPGAFGEMCEKCPTCPDACSTKRDCVECLLLHSGKPDNQTCHSLCRDEVITWVDTIVKDDQEAVLCFYKTAKDCVMMFTYVELPSGKSNLTVLREPECGNTPNAMTILLAVVGSILLVGLALLAIWKLLVTIHDRREFAKFQSERSRARYEMASNPLYRKPISTHTVDFTFNKFNKSYNGTVD
notes: whole, on cells
no binding (tested: 1000 nM): [1] | [2] | [3] | [4] | [5] | [6] | [7]

B2: integrin αvβ8 (receptor)
chain 1: FNLDVDSPAEYSGPEGSYFGFAVDFFVPSASSRMFLLVGAPKANTTQPGIVEGGQVLKCDWSSTRRCQPIEFDATGNRDYAKDDPLEFKSHQWFGASVRSKQDKILACAPLYHWRTEMKQEREPVGTCFLQDGTKTVEYAPCRSQDIDADGQGFCQGGFSIDFTKADRVLLGGPGSFYWQGQLISDQVAEIVSKYDPNVYSIKYNNQLATRTAQAIFDDSYLGYSVAVGDFNGDGIDDFVSGVPRAARTLGMVYIYDGKNMSSLYNFTGEQMAAYFGFSVAATDINGDDYADVFIGAPLFMDRGSDGKLQEVGQVSVSLQRASGDFQTTKLNGFEVFARFGSAIAPLGDLDQDGFNDIAIAAPYGGEDKKGIVYIFNGRSTGLNAVPSQILEGQWAARSMPPSFGYSMKGATDIDKNGYPDLIVGAFGVDRAILYRARPVITVNAGLEVYPSILNQDNKTCSLPGTALKVSCFNVRFCLKADGKGVLPRKLNFQVELLLDKLKQKGAIRRALFLYSRSPSHSKNMTISRGGLMQCEELIAYLRDESEFRDKLTPITIFMEYRLDYRTAADTTGLQPILNQFTPANISRQAHILLDCGEDNVCKPKLEVSVDSDQKKIYIGDDNPLTLIVKAQNQGEGAYEAELIVSIPLQADFIGVVRNNEALARLSCAFKTENQTRQVVCDLGNPMKAGTQLLAGLRFSVHQQSEMDTSVKFDLQIQSSNLFDKVSPVVSHKVDLAVLAAVEIRGVSSPDHVFLPIPNWEHKENPETEEDVGPVVQHIYELRNNGPSSFSKAMLHLQWPYKYNNNTLLYILHYDIDGPMNCTSDMEINPLRIKISSLQTTEKNDTVAGQGERDHLITKRDLALSEGDIHTLGCGVAQCLKIVCQVGRLDRGKSAILYVKSLLWTETFMNKENQNHSYSLKSSASFNVIEFPYKNLPIEDITNSTLVTTNVTWGIQPAPMPVPVWVIILAVLAGLLLLAVLVFVMYRMGFFKRVRPPQEEQEREQLQPHENGEGNSET
chain 2: EDNRCASSNAASCARCLALGPECGWCVQEDFISGGSRSERCDIVSNLISKGCSVDSIEYPSVHVIIPTENEINTQVTPGEVSIQLRPGAEANFMLKVHPLKKYPVDLYYLVDVSASMHNNIEKLNSVGNDLSRKMAFFSRDFRLGFGSYVDKTVSPYISIHPERIHNQCSDYNLDCMPPHGYIHVLSLTENITEFEKAVHRQKISGNIDTPEGGFDAMLQAAVCESHIGWRKEAKRLLLVMTDQTSHLALDSKLAGIVVPNDGNCHLKNNVYVKSTTMEHPSLGQLSEKLIDNNINVIFAVQGKQFHWYKDLLPLLPGTIAGEIESKAANLNNLVVEAYQKLISEVKVQVENQVQGIYFNITAICPDGSRKPGMEGCRNVTSNDEVLFNVTVTMKKCDVTGGKNYAIIKPIGFNETAKIHIHRNCSCQCEDNRGPKGKCVDETFLDSKCFQCDENKCHFDEDQFSSESCKSHKDQPVCSGRGVCVCGKCSCHKIKLGKVYGKYCEKDDFSCPYHHGNLCAGHGECEAGRCQCFSGWEGDRCQCPSAAAQHCVNSKGQVCSGRGTCVCGRCECTDPRSIGRFCEHCPTCYTACKENWNCMQCLHPHNLSQAILDQCKTSCALMEQQHYVDQTSECFSSPSYLRIFFIIFIVTFLIGLLKVLIIRQVILQWNSNKIKSSSDYRVSASKKDKLILQSVCTRAVTYRREKPEEIKMDISKLNAHETFRCNF
notes: whole, on cells
no binding (tested: 1000 nM): [1] | [2] | [3] | [4] | [5] | [6] | [7]

Reference: US20200283532A1 (CANCER RESEARCH TECHNOLOGY, published 2020)
